The text below walks through data of the supplement of paper PMC12042874.

± gives the uncertainty stated by the source.

The series is described as follows: amyloid nucleation score (Sup35N fusion, yeast selection) (log enrichment); library NNK2; higher = more nucleation; inactive = no reads after selection. The method in brief: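 The nucleation score, computed with DiMSum, is the log enrichment of output over input reads, centred on the mode score of non-aggregating sequences. Sequences with under 100 input reads were dropped. Reads were generated by Illumina sequencing of plasmid inserts from psi-negative yeast with Sup35N fused to peptides of 20 random codons, induced with 100 μM copper sulfate for 24 hours and grown 7 days at 30°C on medium lacking adenine and uracil.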

As to DYCLSSICFLIDVGESFERG, the amyloid nucleation score was determined as 0.171 ± 0.44. On to SCCNL, for which the amyloid nucleation score is -0.11 ± 0.19.

As to FNVSVCCG, the amyloid nucleation score is 0.607 ± 0.65. As for IVFPDCSRYKKPHFCYEMVI, the entry is “inactive”. As for DDRELL, the figure is -0.32 ± 0.63; as for MYSISVNMKNSFRNL, 0.566 ± 0.66. For IYMGISVCSICYV, the amyloid nucleation score was 6.34 ± 0.071.

Consider SHCSLEDG, for which the amyloid nucleation score was determined as 1.22 ± 0.12.

DGFRTYIVRWEATVANSLVV registered an amyloid nucleation score of 0.736 ± 0.52. As for MDCILNYFFVLLLGHGNLLM, the figure is -0.826 ± 0.54. As for APSLIYFNVST, the figure is 3.75 ± 0.13; as for CIKALRVYFYEGFTSTR, -1.89 ± 1.1. As for QLPFWGWNCMAKLTVTLHSR, the figure is 1.22 ± 0.29; as for FRNPHYASHGQYHYRFNMRY, “inactive”; as for LGPCSVIGQMVMYDRYGLLD, -0.313 ± 0.76. ARVALRLIYDMDRVLWPDSY showed an amyloid nucleation score of 5 ± 0.067. In the case of KLDVAAFVKVAE it was 6.142 ± 0.039. In the case of WVVHLSSGIRNF it was “inactive”. As for NLFPSQTLYVFRHVGCCG, the entry is “inactive”; as for HYLNIRQDPY, 2.4 ± 0.21; as for SKLIVWLTDLASSVSRMLLV, 4.09 ± 0.071. For LACTKQFQVAVVFPDYTFIA, the amyloid nucleation score was found to be 3.71 ± 0.064. The substance SIGTGRAESL registered an amyloid nucleation score of 0.359 ± 0.57. As for FFSLSQQYSRSVIVYAKLHL, the figure is -0.98 ± 0.54; as for GKCMV, 4.02 ± 0.095. On to RPGYNQMDFDWRLLIDVFDG, for which the amyloid nucleation score was -0.133 ± 1. As for NMYNLGFLSYYLKISGYLLD, the figure is -1.85 ± 1; as for RINQLLTPLTWQERGP, 3.38 ± 0.06.

On to WWYPSGLDCFVVSFFRCHCV, for which the amyloid nucleation score is -0.107 ± 1.

NNVANW showed an amyloid nucleation score of 0.569 ± 0.48. As to ALCKMQLITSSYQGPATEDL, the amyloid nucleation score was -0.168 ± 0.76. Substance TSERRLNYTCCNYWYMG yielded an amyloid nucleation score of 9.053 ± 0.04. In the case of RAPVSWRLK it was 0.267 ± 0.42; in that of MLVVLMFSLSDSI, 1.67 ± 0.1.

Substance TVYPCMYGGLGHRERHLSMS came in with an amyloid nucleation score of 5.06 ± 0.063.

With PEPFS, the amyloid nucleation score result was “inactive”.

RGAAGILFTSLIFMSVYALI: the amyloid nucleation score is -0.104 ± 0.49. As to ARNRSSIKWGRGSDYGFTEL, the amyloid nucleation score was 0.451 ± 0.65.

ASMKGYV had an amyloid nucleation score of 0.148 ± 0.5. As for VNLPD, the amyloid nucleation score was found to be 0.15 ± 0.56. As for NISDFVKLVSYWVSVRCDLR, the figure is -0.305 ± 1.1.

For the substance YIPMIKL, the amyloid nucleation score was -0.794 ± 0.43. Turning to CPWSQSRLAYYTCGYYTASS, the amyloid nucleation score was 0.193 ± 0.5. In the case of SSSDFEFSHVIKGAIFRLFT, the amyloid nucleation score is -1.2 ± 1. DNSYVMDLECLICCNFSNTK displayed an amyloid nucleation score of 8.201 ± 0.025. In the case of LGHASSFCAYCRFDSM it was 4.16 ± 0.068. In the case of DIIRMGFRPFWQGVCVRLSY it was -0.669 ± 0.63. In the case of WSDLFRRTMCGVW it was 0.624 ± 0.66; in that of VVRGIRVTR, 0.116 ± 0.28; in that of PVAQTLAVTFNY, 1.62 ± 0.23. Take FTCDSSLYAES: the amyloid nucleation score is -0.485 ± 0.41. Regarding GFYIPRRAFS, the amyloid nucleation score is -1.13 ± 0.25. In the case of CMSVGGGLHG it was 3.13 ± 0.071. As for DSDHFA, the figure is -1.58 ± 0.78; as for VLNGNLSFLSAVWFGKM, 6.729 ± 0.053.

Turning to FLIFINMGIRRIRHV, the amyloid nucleation score is -1.37 ± 0.75.

Turning to STDAILAGKFCSGH, the amyloid nucleation score was -0.943 ± 0.55. On to CCPASYMQYEFLGRMSGGCW, for which the amyloid nucleation score turned out to be 2.82 ± 0.15.

The substance AVSIGLYFVQASP had an amyloid nucleation score of 9.658 ± 0.052.

In the case of DVHHRIIMMLLGGFWYACGY, the amyloid nucleation score was -0.428 ± 0.27. In the case of FMGSSIGLSSCPLEDTYVLP it was -0.403 ± 1; in that of GDMLILSENDQRYCGPVDL, 0.107 ± 0.45.

As to HWSLGSYFGYNFGR, the amyloid nucleation score stood at 5.67 ± 0.062.

IRHNVKRLGATNVW: the amyloid nucleation score was -0.09 ± 0.76.

MLLIRGHILIPGADLTIIPE: the amyloid nucleation score is -0.692 ± 0.56. In the case of NYKRFCSCMLDH, the amyloid nucleation score was -0.665 ± 0.63. As for GDGHLVILLSHFTPWSLNTG, the figure is -0.209 ± 0.48; as for RFEHGSTFGDDKL, -1.26 ± 1.1; as for WQGEPHPIHFMLSFVLMGW, 0.957 ± 0.21. In the case of FDLNAREHYRASRGDTGTGH it was 1.16 ± 0.68. As for GGSKTRLFL, the amyloid nucleation score is -0.263 ± 1.1. In the case of DFCCWCPFCYVSWYEGIVMI it was 0.305 ± 1; in that of RTSRVKVR, 4.13 ± 0.074.

Regarding VYYASDNWYLAYRWEGRRFN, the amyloid nucleation score is 0.821 ± 0.27.

EYSPCPSCT displayed an amyloid nucleation score of 3.966 ± 0.037. In the case of YRKSWVWVLLESASAMLIGL it was 0.682 ± 0.22; in that of TPIRVFGNYNSFHFCTMSS, 8.302 ± 0.053; in that of SMRDEVYIRFFMNRILSVRS, -0.803 ± 1. LLNSCSTVESWCNLGEMDKY registered an amyloid nucleation score of 0.122 ± 1.1.

In the case of KRINCPKFSNGQYGLS, the amyloid nucleation score entry is “inactive”.

As for YGSWSPHEAGVYT, the amyloid nucleation score entry was “inactive”. As for DSEPVYYTVNFNQLLSRLYY, the figure is 1.52 ± 0.32; as for FTRSWFLYTT, 3.85 ± 0.095.

As for ALGSRINYQKGLMQNRTGKG, the amyloid nucleation score is -0.649 ± 0.76. In the case of PKRLKSSYLD it was -0.208 ± 0.37. As for WQNETRMACRWFRRMLSFCI, the figure is 1.42 ± 0.4; as for GHTPCPHNVVRTHVLSWHGL, 7.021 ± 0.042; as for VLWNKSALNSKNSRTG, 2.57 ± 0.1.

Take IFDIWTSIAVRDLLLNGRSW: the amyloid nucleation score came to 0.561 ± 0.31.

As to GDNYIS, the amyloid nucleation score stood at 0.782 ± 0.41. In the case of VMTFMVTRTD it was 6.111 ± 0.037. On to MYKVPTCPMFMVDNYYKLLN, for which the amyloid nucleation score result was “inactive”. As for RASANYRSSYFERSPDVVRE, the figure is 3.63 ± 0.14; as for VLLEIY, -0.384 ± 0.65.

Take IHLPKCISVSFRVSVGFLDM: the amyloid nucleation score result is “inactive”. As for TVGRWH, the amyloid nucleation score is -0.939 ± 0.76. As for VTKVCGYLEFSMQVYRCVFH, the entry is “inactive”; as for LHIESRLRRSSQEKSN, 0.012 ± 0.45. Turning to LGCMNDNMSNYYCGHR, the amyloid nucleation score is -1.31 ± 0.55. On to GCRDMIWVGL, for which the amyloid nucleation score entry was “inactive”. As for AAFTRTSP, the figure is 0.858 ± 0.27; as for PNSPRMNESLSFIFPGDVSG, -0.474 ± 1; as for FSSSNSIFKFVLNVRCTGVK, 5.045 ± 0.049. In the case of FISSADLVTNMPRI it was -0.8 ± 0.31; in that of QKLIRWCVKLG, 4.24 ± 0.062; in that of NITMMGLVVTFVAISVRLSL, 0.959 ± 0.47.
